{
  "source": "paper PMC12756933",
  "about": "“Evidence for biomolecular condensates formed by the Escherichia coli MatP protein in spatiotemporal regulation of the bacterial cell division cycle” (International journal of biological macromolecules, 2025)",
  "binders": {"B1": {"name": "FtsZ (natural protein, E. coli, UniProt P0A9A6 1-383, looked up)", "chain": "MFEPMELTNDAVIKVIGVGGGGGNAVEHMVRERIEGVEFFAVNTDAQALRKTAVGQTIQIGSGITKGLGAGANPEVGRNAADEDRDALRAALEGADMVFIAAGMGGGTGTGAAPVVAEVAKDLGILTVAVVTKPFNFEGKKRMAFAEQGITELSKHVDSLITIPNDKLLKVLGRGISLLDAFGAANDVLKGAVQGIAELITRPGLMNVDFADVRTVMSEMGYAMMGSGVASGEDRAEEAAEMAISSPLLEDIDLSGARGVLVNITAGFDLRLDEFETVGNTIRAFASDNATVVIGTSLDPDMNDELRVTVVATGIGMDKRPEITLVTNKQVQQPVMDRYQQHGMAPLTQEQKPVAKVVNDNAPQTAKEPDYLDIPAFLRKQAD", "modifications": "Alexa Fluor 488 or Alexa Fluor 647 at amino groups, on the tracer fraction only (<1 mol of dye per mole of protein)", "notes": "FtsZ, E. coli; Oligomers of variable size without GTP, polymers with GTP; also called FtsZ-Alexa 488; FtsZ-Alexa 647"}},
  "key": {"[1]": {"molecular_target": "the molecule itself", "assay": "AUC; sedimentation velocity, dilute solution buffer with 100 mM KCl, GTP and GTP regeneration system, Rayleigh interference; FtsZ polymers with or without MatP"}, "FtsZ [2]": {"molecular_target": "T1, FtsZ (E. coli, UniProt P0A9A6 1-383)", "T1 construct": "FtsZ, Escherichia coli cell division protein; oligomers of variable size without GTP, polymers with GTP; also called FtsZ-GTP; GTP-triggered FtsZ polymers", "T1 sequence (looked up)": "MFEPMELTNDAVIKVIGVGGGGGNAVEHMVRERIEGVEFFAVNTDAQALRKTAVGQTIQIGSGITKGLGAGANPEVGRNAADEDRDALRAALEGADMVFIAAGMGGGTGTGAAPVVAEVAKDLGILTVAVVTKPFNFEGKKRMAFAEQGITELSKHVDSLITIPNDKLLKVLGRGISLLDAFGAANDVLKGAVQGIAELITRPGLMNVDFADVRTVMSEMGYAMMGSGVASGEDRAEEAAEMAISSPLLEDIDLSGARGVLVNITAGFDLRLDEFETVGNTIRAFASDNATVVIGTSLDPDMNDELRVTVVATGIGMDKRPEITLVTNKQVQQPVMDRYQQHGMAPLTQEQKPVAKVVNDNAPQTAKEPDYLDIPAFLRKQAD", "assay": "AUC; multi-signal sedimentation velocity (MSSV), 20 uM FtsZ and 7 uM MatP, absorbance at 250 and 280 nm, 48,000 rpm; dilute solution buffer (50 mM Tris-HCl pH 7.5, 5 mM MgCl2) with 100 mM KCl, no GTP", "details": "both partners purified"}, "FtsZ [3]": {"molecular_target": "B1", "assay": "fluorescence polarisation; anisotropy titration of MatP (50 nM MatP-Alexa 488, 96 nM total MatP) with unlabelled FtsZ; 50 mM Tris-HCl pH 7.5, 5 mM MgCl2, 100 mM KCl; simple 1:1 model, apparent Kd = FtsZ concentration at half of the maximum signal", "details": "both partners purified"}, "[4]": {"molecular_target": "the molecule itself", "assay": "fluorescence correlation spectroscopy; dilute solution buffer: 50 mM Tris-HCl pH 7.5, 5 mM MgCl2, 100 mM KCl, 0.05 g/L BSA; 10 uM MatP with 10 nM MatP-Alexa 488 as tracer, alone or with 20 uM unlabelled FtsZ, no GTP; at 300 mM KCl the profiles of MatP and FtsZ/MatP overlapped"}},
  "note": "“And” between values parts separate entries of the source, which are not always exact repeats. Equal entries are not always repeated.",
  "data": [
    {"binder": "B1", "values": [
      {"measurement": "binding result", "setting": "[1]", "value": "binds"}
    ]},
    {"binder": "MatP (natural protein, E. coli, UniProt P0A8N0 1-150, looked up, MatP, Escherichia coli, untagged; sediments as a dimer (2.5 S); also called Ter macrodomain organizer MatP; MatP-Alexa 488 (labelled tracer)) MKYQQLENLESGWKWKYLVKKHREGELITRYIEASAAQEAVDVLLSLENEPVLVNGWIDKHMNPELVNRMKQTIRARRKRHFNAEHQHTRKKSIDLEFIVWQRLAGLAQRRGKTLSETIVQLIEDAENKEKYANKMSSLKQDLQALLGKE", "values": [
      {"measurement": "binding result", "setting": "FtsZ [2]", "value": "binds"}
    ]},
    {"binder": "MatP (natural protein, E. coli, UniProt P0A8N0 1-150, looked up, Alexa Fluor 488 or Alexa Fluor 647 at amino groups, on the tracer fraction only (<1 mol of dye per mole of protein), MatP, E. coli, untagged; Labelled MatP was used as a tracer mixed with unlabelled MatP; Sediments as a dimer (2.5 S); also called Ter macrodomain organizer MatP; MatP-Alexa 488) MKYQQLENLESGWKWKYLVKKHREGELITRYIEASAAQEAVDVLLSLENEPVLVNGWIDKHMNPELVNRMKQTIRARRKRHFNAEHQHTRKKSIDLEFIVWQRLAGLAQRRGKTLSETIVQLIEDAENKEKYANKMSSLKQDLQALLGKE", "values": [
      {"measurement": "Kd", "setting": "FtsZ [3]", "value": "8 µM and 18 µM"},
      {"measurement": "stoichiometry N", "setting": "[4]", "value": 2}
    ]}
  ]
}
